The values that follow come from the supplement of paper PMC5998384.

For data set [1], the system named is HeLa Kyoto. Briefly: solubility in G1/S (NP-40 vs SDS abundance) (log2 ratio); higher = more soluble. The conditions noted are these: cell cycle stage: G1/S.
The subject of data set [2] is HeLa Kyoto. Description: melting temperature (median over replicates), in situ; higher = more thermally stable.
The test system of data set [3] is HeLa Kyoto. Description: solubility change mitosis vs G1/S (difference of NP-40 vs SDS log2 ratios) (log2 ratio difference); higher = more soluble in mitosis.
The subject of data set [4] is HeLa Kyoto. Briefly: thermal stability score vs G1/S (z-score of summed log2 fold changes over temperatures); higher = more thermally stable than in G1/S.
Where [5] appears, read: cell cycle stage: early G1 (4.5 h after nocodazole release).
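Throughout, for melting temperature (median over replicates), in situ: HeLa Kyoto cells synchronized by double thymidine or nocodazole block, proteins quantified by TMT10plex mass spectrometry, three independent biological replicates.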
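Throughout, for solubility change mitosis vs G1/S (difference of NP-40 vs SDS log2 ratios): synchronized HeLa Kyoto cells (double thymidine block for G1/S, nocodazole release for mitosis), protein amounts in NP-40 versus SDS lysates quantified by mass spectrometry, three biological replicates.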
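Throughout, for solubility in G1/S (NP-40 vs SDS abundance): HeLa Kyoto cells arrested at G1/S by double thymidine block, proteins quantified by TMT10plex mass spectrometry in mild NP-40 versus SDS extracts, three biological replicates.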
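Throughout, for thermal stability score vs G1/S (z-score of summed log2 fold changes over temperatures): synchronized HeLa Kyoto cells, proteins quantified by TMT10plex mass spectrometry, three biological replicates, mitosis taken 0.5 h after nocodazole release, G1/S directly after double thymidine block.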

Chain of HNRNPAB (chain, as listed by the source): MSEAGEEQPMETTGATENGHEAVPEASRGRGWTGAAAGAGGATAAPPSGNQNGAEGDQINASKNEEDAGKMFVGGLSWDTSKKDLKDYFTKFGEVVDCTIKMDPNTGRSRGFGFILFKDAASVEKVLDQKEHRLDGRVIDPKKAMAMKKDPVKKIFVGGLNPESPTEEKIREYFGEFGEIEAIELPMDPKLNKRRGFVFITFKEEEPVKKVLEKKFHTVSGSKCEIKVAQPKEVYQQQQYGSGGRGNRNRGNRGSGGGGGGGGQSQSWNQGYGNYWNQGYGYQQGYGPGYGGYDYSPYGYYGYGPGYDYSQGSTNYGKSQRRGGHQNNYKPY

As to “MIEQQKRKGPELPLVPVKRQRHELLLGAGSGPGAGQQQATPGALLQAGPPRCSSLQAPIMLLSGHEGEVYCCKFHPNGSTLASAGFDRLILLWNVYGDCDNYATLKGHSGAVMELHYNTDGSMLFSASTDKTVAVWDSETGERVKRLKGHTSFVNSCYPARRGPQLVCTGSDDGTVKLWDIRKKAAIQTFQNTYQVLAVTFNDTSDQIISGGIDNDIKVWDLRQNKLTYTMRGHADSVTGLSLSSEGSYLLSNAMDNTVRVWDVRPFAPKERCVKIFQGNVHNFEKNLLRCSWSPDGSKIAAGSADRFVYVWDTTSRRILYKLPGHAGSINEVAFHPDEPIIISASSDKRLYMGEIQ [SNRNP40]”, in the data set with HeLa Kyoto [1], the “solubility in G1/S (log2)” value was -1.09. Further, the melting temperature with HeLa Kyoto [2] (cell cycle stage: G1/S) was 49.9 °C; with HeLa Kyoto [2] (cell cycle stage: mitosis), 50.7 °C. Also, the “solubility change mitosis (log2)” value in the data set with HeLa Kyoto [3] was determined as 0.366. In addition, the thermal stability score in the data set on HeLa Kyoto [4] (setting [5]) was -0.469; in the data set on HeLa Kyoto [4] (cell cycle stage: mitosis), -0.465.
In the case of “MAATSLMSALAARLLQPAHSCSLRLRPFHLAAVRNEAVVISGRKLAQQIKQEVRQEVEEWVASGNKRPHLSVILVGENPASHSYVLNKTRAAAVVGINSETIMKPASISEEELLNLINKLNNDDNVDGLLVQLPLPEHIDERRICNAVSPDKDVDGFHVINVGRMCLDQYSMLPATPWGVWEIIKRTGIPTLGKNVVVAGRSKNVGMPIAMLLHTDGAHERPGGDATVTISHRYTPKEQLKKHTILADIVISAAGIPNLITADMIKEGAAVIDVGINRVHDPVTAKPKLVGDVDFEGVRQKAGYITPVPGGVGPMTVAMLMKNTIIAAKKVLRLEEREVLKSKELGVATN [MTHFD2]”, in the data set with HeLa Kyoto [1], the “solubility in G1/S (log2)” value was found to be 0.505. The figures for the melting temperature with HeLa Kyoto [2] (cell cycle stage: G1/S) and in the data set on HeLa Kyoto [2] (cell cycle stage: mitosis) were 52.5 °C and 53.3 °C, respectively. In the data set with HeLa Kyoto [3], the “solubility change mitosis (log2)” value is -0.0584. Also, the thermal stability score in the data set on HeLa Kyoto [4] (setting [5]) is 0.31; with HeLa Kyoto [4] (cell cycle stage: mitosis), -0.889.
Take KDM3B: in the data set with HeLa Kyoto [1], the “solubility in G1/S (log2)” value was found to be 0.00792. The melting temperature in the data set with HeLa Kyoto [2] (cell cycle stage: G1/S) was determined as 48.6 °C; in the data set with HeLa Kyoto [2] (cell cycle stage: mitosis) it was 49.8 °C. Also, in the data set on HeLa Kyoto [3], the “solubility change mitosis (log2)” value is -0.108. The thermal stability score with HeLa Kyoto [4] (setting [5]) was determined as 0.937; with HeLa Kyoto [4] (cell cycle stage: mitosis), 2.62.
Consider “MENSQLCKLFIGGLNVQTSESGLRGHFEAFGTLTDCVVVVNPQTKRSRCFGFVTYSNVEEADAAMAASPHAVDGNTVELKRAVSREDSARPGAHAKVKKLFVGGLKGDVAEGDLIEHFSQFGTVEKAEIIADKQSGKKRGFGFVYFQNHDAADKAAVVKFHPIQGHRVEVKKAVPKEDIYSGGGGGGSRSSRGGRGGRGRGGGRDQNGLSKGGGGGYNSYGGYGGGGGGGYNAYGGGGGGSSYGGSDYGNGFGGFGSYSQHQSSYGPMKSGGGGGGGGSSWGGRSNSGPYRGGYGGGGGYGGSSF [HNRNPA0]”, for which the “solubility in G1/S (log2)” value with HeLa Kyoto [1] was -0.218. Also, the melting temperature in the data set on HeLa Kyoto [2] (cell cycle stage: G1/S) was found to be 45.2 °C; with HeLa Kyoto [2] (cell cycle stage: mitosis), 47 °C. For the same substance, the “solubility change mitosis (log2)” value in the data set with HeLa Kyoto [3] is 0.24. The thermal stability score is 3.72 in the data set on HeLa Kyoto [4] (setting [5]) and 12.8 with HeLa Kyoto [4] (cell cycle stage: mitosis).
Regarding HNRNPAB, in the data set on HeLa Kyoto [1], the “solubility in G1/S (log2)” value was found to be 0.308. For the same substance, the melting temperature worked out at 55.3 °C with HeLa Kyoto [2] (cell cycle stage: G1/S) and 54.4 °C in the data set with HeLa Kyoto [2] (cell cycle stage: mitosis). Besides, the “solubility change mitosis (log2)” value in the data set with HeLa Kyoto [3] is 0.251. Besides, the thermal stability score in the data set on HeLa Kyoto [4] (setting [5]) is -0.524; in the data set on HeLa Kyoto [4] (cell cycle stage: mitosis) it was -3.14.
In the case of “MPGPRRPAGSRLRLLLLLLLPPLLLLLRGSHAGNLTVAVVLPLANTSYPWSWARVGPAVELALAQVKARPDLLPGWTVRTVLGSSENALGVCSDTAAPLAAVDLKWEHNPAVFLGPGCVYAAAPVGRFTAHWRVPLLTAGAPALGFGVKDEYALTTRAGPSYAKLGDFVAALHRRLGWERQALMLYAYRPGDEEHCFFLVEGLFMRVRDRLNITVDHLEFAEDDLSHYTRLLRTMPRKGRVIYICSSPDAFRTLMLLALEAGLCGEDYVFFHLDIFGQSLQGGQGPAPRRPWERGDGQDVSARQAFQAAKIITYKDPDNPEYLEFLKQLKHLAYEQFNFTMEDGLVNTIPASFHDGLLLYIQAVTETLAHGGTVTDGENITQRMWNRSFQGVTGYLKIDSSGDRETDFSLWDMDPENGAFRVVLNYNGTSQELVAVSGRKLNWPLGYPPPDIPKCGFDNEDPACNQDHLSTLEVLALVGSLSLLGILIVSFFIYRKMQLEKELASELWRVRWEDVEPSSLERHLRSAGSRLTLSGRGSNYGSLLTTEGQFQVFAKTAYYKGNLVAVKRVNRKRIELTRKVLFELKHMRDVQNEHLTRFVGACTDPPNICILTEYCPRGSLQDILENESITLDWMFRYSLTNDIVKGMLFLHNGAICSHGNLKSSNCVVDGRFVLKITDYGLESFRDLDPEQGHTVYAKKLWTAPELLRMASPPVRGSQAGDVYSFGIILQEIALRSGVFHVEGLDLSPKEIIERVTRGEQPPFRPSLALQSHLEELGLLMQRCWAEDPQERPPFQQIRLTLRKFNRENSSNILDNLLSRMEQYANNLEELVEERTQAYLEEKRKAEALLYQILPHSVAEQLKRGETVQAEAFDSVTIYFSDIVGFTALSAESTPMQVVTLLNDLYTCFDAVIDNFDVYKVETIGDAYMVVSGLPVRNGRLHACEVARMALALLDAVRSFRIRHRPQEQLRLRIGIHTGPVCAGVVGLKMPRYCLFGDTVNTASRMESNGEALKIHLSSETKAVLEEFGGFELELRGDVEMKGKGKVRTYWLLGERGSSTRG [NPR1]”, in the data set on HeLa Kyoto [1], the “solubility in G1/S (log2)” value was determined as 0.0297. Also, the melting temperature with HeLa Kyoto [2] (cell cycle stage: G1/S) was determined as 52.4 °C; with HeLa Kyoto [2] (cell cycle stage: mitosis), 51.4 °C. The “solubility change mitosis (log2)” value with HeLa Kyoto [3] was -0.0544. Moreover, the thermal stability score is 0.231 in the data set with HeLa Kyoto [4] (setting [5]) and -0.0841 with HeLa Kyoto [4] (cell cycle stage: mitosis).
For the substance “MAAAVAAAPGALGSLHAGGARLVAACSAWLCPGLRLPGSLAGRRAGPAIWAQGWVPAAGGPAPKRGYSSEMKTEDELRVRHLEEENRGIVVLGINRAYGKNSLSKNLIKMLSKAVDALKSDKKVRTIIIRSEVPGIFCAGADLKERAKMSSSEVGPFVSKIRAVINDIANLPVPTIAAIDGLALGGGLELALACDIRVAASSAKMGLVETKLAIIPGGGGTQRLPRAIGMSLAKELIFSARVLDGKEAKAVGLISHVLEQNQEGDAAYRKALDLAREFLPQGPVAMRVAKLAINQGMEVDLVTGLAIEEACYAQTIPTKDRLEGLLAFKEKRPPRYKGE [AUH]”, the “solubility in G1/S (log2)” value in the data set with HeLa Kyoto [1] turned out to be 0.261. Also, the melting temperature in the data set on HeLa Kyoto [2] (cell cycle stage: G1/S) and in the data set on HeLa Kyoto [2] (cell cycle stage: mitosis) was 51.6 °C in each case. For the same substance, the “solubility change mitosis (log2)” value in the data set with HeLa Kyoto [3] was -0.0164. In addition, the thermal stability score worked out at 0.266 in the data set with HeLa Kyoto [4] (setting [5]) and 1.09 in the data set on HeLa Kyoto [4] (cell cycle stage: mitosis).
